Reference: the supplement of paper PMC10567573

B1: LOC100129726 (parent)
chain: VHTGCHKKLGPEARRPRTRWGKN
B2: SPDEF (parent)
chain: FQELAGKELCAMSEEQFRQRSPLG

Variants of: B1
Test: protein stability index of a GFP-peptide fusion (GPS, HEK-293T) (PSI 1-6); higher = more stable
Conditions: c terminus: native
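Note: lentivirally expressed fusions sorted by FACS into six bins by GFP to DsRed ratio, PSI derived from sequencing read proportions per bin multiplied by bin number.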

Protein stability index: each site, then its substitutions
K7: M 4.17
A13: K 1.11 | S 2.71
C5: R 2.29 | M 2.41 | N 1.59
L9: C 2.4 | H 1.62
E12: V 1.23 | L 2.17
G10: H 1.74 | T 2.48
R14: P 4.64
P11: Y 2.17 | W 1.46
H6: F 1.81
R15: H 2.44
R17: Y 2.15 | D 4.38 | I 1.98
T18: N 1.74
R19: F 2.3 | E 3.77
V1: M 1.73
G4: D 2.33 | L 2.91 | S 2.56 | M 2.44
H2: W 1.38 | P 2.05 | V 2.99 | Y 1.85

Variants of: B2
Test: as above
Conditions: c terminus: a fixed tail appended

Protein stability index of substitutions, site by site:
Q19: H 2.93 | C 2.67 | Y 2.3 | A 2.67 | G 2.53 | R 2.4 | N 2.11 | T 3.11 | D 2.87 | W 1.59 | P 2.74 | K 2.74 | V 2.42 | I 2.39 | M 2.33 | L 2.24 | S 2.45 | E 4.17 | F 2.23
L23: W 1.69 | Y 2.59 | A 3.02 | G 3.31 | K 3.21 | D 2.8 | M 2.84 | R 3.24 | F 2.78 | N 3.46 | P 3.25 | I 2.9 | H 3.18 | C 2.63 | Q 3.58 | T 2.77 | S 3.16 | E 3.48 | V 3.09
S13: F 2.15 | P 3.18 | C 2.11 | Y 2.4 | L 1.71 | E 2.61 | N 2.48 | T 2.69 | D 2.89 | M 2.45 | V 3.05 | G 2.57 | A 3.62 | W 2.08 | R 2.73 | H 2.2 | K 2.58 | I 2.19 | Q 2.62
R20: E 3.71 | Y 2.43 | A 2.79 | G 2.49 | V 2.1 | M 2.1 | W 2.52 | L 2.55 | S 2.88 | D 3.47 | F 2.2 | H 2.74 | P 2.58 | I 2.86 | Q 2.72 | T 2.91 | K 2.51 | C 2.4 | N 3.04
E15: R 2.5 | L 2.32 | A 3.05 | I 2.04 | F 1.98 | W 2.56 | Y 2.04 | K 2.24 | C 2.19 | N 2.13 | Q 2.71 | H 2.01 | S 2.21 | T 2.38 | P 2.41 | G 2.3 | D 2.74 | V 1.93 | M 2.19
C10: M 2.91 | Y 2.4 | K 2.67 | D 4.38 | T 3.52 | Q 3.46 | P 4.32 | E 3.9 | A 3.31 | W 1.9 | S 3.4 | V 2.93 | N 3.1 | R 3.12 | L 2.79 | H 3.12 | G 3.05 | I 3.34 | F 2
Q16: H 2.43 | G 2.74 | P 2.47 | C 2.86 | T 2.65 | V 2.28 | A 3.12 | E 3.06 | D 3.23 | Y 2.16 | L 2.2 | S 2.56 | F 2.13 | M 2.23 | K 2.28 | R 2.6 | I 2.49 | W 1.92 | N 2.74
E14: Y 2.49 | W 2.95 | Q 2.63 | M 2.03 | C 2.46 | R 2.52 | G 2.21 | A 2.28 | T 1.89 | I 1.8 | S 2.3 | V 2.07 | F 2.22 | N 2.81 | L 2.3 | K 2.15 | D 2.89 | P 2.38 | H 2.47
G24: R 2.42 | I 2.1 | Q 2.44 | P 2.89 | L 2.67 | F 2.05 | V 2.43 | N 2.72 | A 2.94 | C 2.49 | W 1.93 | M 2.78 | Y 2.12 | D 3.14 | H 2.44 | S 2.74 | K 3.44 | T 2.76 | E 2.56
A11: C 1.83 | R 2.52 | M 2.35 | E 3.49 | G 2.94 | W 2.83 | Y 2.67 | T 2.31 | I 1.87 | L 2.23 | V 1.94 | D 4.66 | K 2.61 | Q 3.55 | N 2.91 | P 3.56 | F 2.5 | H 3.35 | S 2.31
L9: R 3.24 | E 4.93 | V 2.71 | F 2.56 | N 4.37 | D 4.79 | S 3.23 | I 3.19 | K 3.61 | Q 4.25 | G 4.34 | M 3.41 | P 3.83 | W 2.8 | Y 3.25 | T 3.69 | H 3.9
P22: Y 2.2 | D 2.62 | L 2.88 | T 2.63 | E 3.15 | W 1.75 | S 2.92 | M 2.56 | N 2.59 | K 2.77 | V 2.87 | A 2.64 | R 2.53 | G 2.61 | F 2.43 | Q 2.74 | I 2.42 | C 2.62 | H 3.45
F17: D 3.85 | G 3.58 | Y 2.93 | M 2.66 | N 3.02 | A 3.37 | H 3.14 | V 3.1 | K 3.25 | P 3.28 | S 3.14 | Q 3.34 | W 2.67 | E 3.85 | T 3.63 | L 3.14 | R 2.97 | C 3.14 | I 3.22
R18: I 2.73 | F 2.21 | W 2 | C 2.51 | G 2.9 | E 3.31 | S 2.82 | P 2.92 | D 3.37 | Q 2.81 | L 2.76 | V 2.8 | H 2.64 | M 2.51 | A 2.93 | N 2.96 | Y 2.29 | K 2.46 | T 2.83
S21: N 2.6 | T 2.59 | W 2.4 | F 3.17 | K 2.44 | D 3.26 | G 2.52 | E 2.58 | I 2.43 | Y 2.96 | V 2.99 | H 2.82 | R 2.95 | L 2.6 | P 2.43 | M 2.74 | A 2.73 | Q 2.98 | C 2.51
M12: L 2.72 | K 3.3 | T 3.4 | W 1.79 | N 3.3 | S 3.75 | A 3.57 | G 3.04 | C 2.39 | I 2.46 | H 2.9 | F 2.47 | Y 2.88 | R 3.34 | P 2.38 | Q 3.19 | E 4.28 | V 2.83 | D 3.83
